This is an account of results in PMC11867022.

One may read the Kd as the free concentration of one partner at which half of the binding sites on the other are occupied at equilibrium, for simple one-to-one binding. The low end stands for a tighter complex, the high end for a looser complex.

In the series the test system is S9.6 antibody (anti-DNA-RNA hybrid) (mouse). The series can be described thus: SPR. The conditions noted are these: single-cycle kinetics, pH 7.0, SPR: 10 mM HEPES pH 7.0, 15 mM MgCl2, 80 mM NaCl, S9.6 on CM5 chip, EMSA: 200 nM nucleic acid, 80 ug/mL S9.6, 30 min room temperature, 6% PAGE in 0.5X TBE.

As to “AAGAAAAGAGAAGAAGAGAACACCTTCTCTTCTTCTCTTTTCTTAGACCCCTATCACGATTAGCATTAA / UUAAUGCUAAUCGUGAUAGGGGU [Switch B (70% TAT)/miR-155 hybrid]”, the Kd came out at 0.144 nM. Consider “AGTGAATTCTACCAGTGCCATAGAGGAGAGGAGAGGAGGGGAGGTTTACCTCCCCTCCTCTCCTCTCCCTTTGCCTCTCCTCTCCTCCCCTCCGT / UAUGGCACUGGUAGAAUUCACU [Switch A (30% TAT)/miR-183 hybrid]”, for which, under “ka 5.99e5 1/Ms, kd 1.74e-4 1/s”, the Kd was 0.291 nM.
